US20100297664A1 (published 2010)

B1: Ab (52-3) (antibody, V domains shown)
VH: QVQLQQPGAELVKPGASVKLSCKASGYTFTSYWMHWVKQRPGQGLEWIGEINPSNGRTNYNEKFKSKATLTVDKSSSTAYMQLSSLTSEDSAVYYCARSRYYGSCYFDYWGQGTTLTVSS
VL: KIVMTQAAFSNPVTLGTSASISCRSSKSLLYSNGITYLYWYLQKPGQSPQLLIYQMSNLASGVPDRFSSSGSGTDFTLRISRVEAEDVGVYYCAQNLELPWTFGGGTKLEIK
B2: anti-mortalin monoclonal antibody 52-3 (antibody, V domains shown)
VH: B1 VH
VL: B1 VL

What was measured:
Δmot #4 403-679 = assay: BIACORE
[1] = target: full-length mortalin with an His tag (recombinant, expressed in Escherichia coli); assay: BIACORE

| Binder | Kd (Δmot #4 403-679) [nM] | Kd [1] [nM] |
| --- | --- | --- |
| B1 | 4.61 | – |
| B2 | – | 8.17 |
